Test results reported in the supplement of paper PMC9112550, “Optimization of the antimicrobial peptide Bac7 by deep mutational scanning” (BMC Biology, 2022).

Tested on: Escherichia coli TOP10
Assay: shrunken log2 fold change of peptide-encoding DNA abundance (4.5 h post-induction vs induction); higher = less antimicrobial activity (less host growth inhibition)
Settings: time post-induction: 4.5 h; library: site-saturation at positions 5, 18, 19, 20
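Note: peptides expressed intracellularly from a pBAD plasmid library in pooled LB shake-flask culture, induced with 0.3% L-arabinose, DNA abundance read by NGS, three biological replicates, DESeq2 with apeglm shrinkage.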

Sequence | shrunken log2 fold change
RRIRPRPPRLPRPRPRPQADPRP | 0.154
RRIRQRPPRLPRPRPRPMEIPRP | -0.0109
RRIRFRPPRLPRPRPRPHGCPRP | -0.064
RRIRYRPPRLPRPRPRPENGPRP | 0.0143
RRIRSRPPRLPRPRPRPHMCPRP | -0.425
RRIRTRPPRLPRPRPRPFNGPRP | -0.142
RRIRRRPPRLPRPRPRPMDTPRP | 0.229
RRIRFRPPRLPRPRPRPQVCPRP | -0.00807
RRIRQRPPRLPRPRPRPNAWPRP | 0.0879
RRIRPRPPRLPRPRPRPPQGPRP | 0.686
RRIRDRPPRLPRPRPRPGSKPRP | -0.126
RRIRKRPPRLPRPRPRPWLWPRP | 0.00796
RRIRKRPPRLPRPRPRPRWAPRP | 0.469
RRIRDRPPRLPRPRPRPCCYPRP | 0.503
RRIRVRPPRLPRPRPRPERQPRP | 0.514
RRIRHRPPRLPRPRPRPGRTPRP | 0.208
RRIRLRPPRLPRPRPRPEHFPRP | 0.0339
RRIRQRPPRLPRPRPRPHHVPRP | -0.0277
RRIRERPPRLPRPRPRPRHNPRP | -0.137
RRIRPRPPRLPRPRPRPMSMPRP | -0.11
RRIRSRPPRLPRPRPRPSGLPRP | 0.177
RRIRGRPPRLPRPRPRPYCKPRP | 0.0688
RRIRNRPPRLPRPRPRPFRQPRP | 0.0231
RRIRERPPRLPRPRPRPAFTPRP | -0.0832
RRIRRRPPRLPRPRPRPYSDPRP | 0.186

Sequence | shrunken log2 fold change
RRIRNRPPRLPRPRPRPNECPRP | -0.124
RRIRHRPPRLPRPRPRPPCMPRP | -0.245
RRIRPRPPRLPRPRPRPYHQPRP | 0.0122
RRIRDRPPRLPRPRPRPIVAPRP | -0.0201
RRIRVRPPRLPRPRPRPFSQPRP | -0.0697
RRIRMRPPRLPRPRPRPGECPRP | -0.0159
RRIRTRPPRLPRPRPRPVKAPRP | 0.0375
RRIRVRPPRLPRPRPRPRKMPRP | 0.299
RRIRERPPRLPRPRPRPFYWPRP | -0.158
RRIRLRPPRLPRPRPRPDTSPRP | -0.114
RRIRTRPPRLPRPRPRPSYYPRP | -0.786
RRIRFRPPRLPRPRPRPRTNPRP | -0.179
RRIRLRPPRLPRPRPRPGYYPRP | -0.166
RRIRFRPPRLPRPRPRPTQCPRP | 0.322
RRIRSRPPRLPRPRPRPVKCPRP | -0.0337
RRIRTRPPRLPRPRPRPWSQPRP | 0.0431
RRIRNRPPRLPRPRPRPHIHPRP | -0.445
RRIRLRPPRLPRPRPRPPRYPRP | 0.178
RRIRQRPPRLPRPRPRPGQSPRP | -0.0203
RRIRYRPPRLPRPRPRPQGKPRP | -0.00664
RRIRRRPPRLPRPRPRPKMRPRP | 0.733
RRIRRRPPRLPRPRPRPHPSPRP | -0.0167
RRIRFRPPRLPRPRPRPCSWPRP | -0.349
RRIRERPPRLPRPRPRPPNFPRP | -0.329
RRIRGRPPRLPRPRPRPHYYPRP | -0.119

Sequence | shrunken log2 fold change
RRIRLRPPRLPRPRPRPHEGPRP | -0.00992
RRIRGRPPRLPRPRPRPEDYPRP | 0.555
RRIRARPPRLPRPRPRPRKHPRP | 0.146
RRIRSRPPRLPRPRPRPTSPPRP | 0.742
RRIRHRPPRLPRPRPRPPIWPRP | 0.324
RRIRHRPPRLPRPRPRPNRHPRP | -0.281
RRIRNRPPRLPRPRPRPAQRPRP | -0.0476
RRIRMRPPRLPRPRPRPYFWPRP | -0.13
RRIRCRPPRLPRPRPRPSHHPRP | -0.603
RRIRIRPPRLPRPRPRPNADPRP | -0.322
RRIRIRPPRLPRPRPRPHPWPRP | -0.319
RRIRARPPRLPRPRPRPNLWPRP | 0.467
RRIRARPPRLPRPRPRPVGIPRP | -0.102
RRIRWRPPRLPRPRPRPTVKPRP | -0.0974
RRIRRRPPRLPRPRPRPWQSPRP | -0.0153
RRIRIRPPRLPRPRPRPDMMPRP | 0.0293
RRIRDRPPRLPRPRPRPLGLPRP | 0.0955
RRIRFRPPRLPRPRPRPMPTPRP | 0.432
RRIRVRPPRLPRPRPRPNGCPRP | 0.0454
RRIRVRPPRLPRPRPRPSRDPRP | -0.0563
RRIRERPPRLPRPRPRPMNNPRP | -0.637
RRIRGRPPRLPRPRPRPRRAPRP | 0.963
RRIRTRPPRLPRPRPRPFIEPRP | -0.553
RRIRVRPPRLPRPRPRPWNYPRP | -0.0949
RRIRDRPPRLPRPRPRPHQKPRP | 0.365

Sequence | shrunken log2 fold change
RRIRIRPPRLPRPRPRPPKVPRP | -0.0254
RRIRDRPPRLPRPRPRPRCLPRP | -0.0519
RRIRHRPPRLPRPRPRPQLDPRP | 0.153
RRIRPRPPRLPRPRPRPKSIPRP | -0.352
RRIRFRPPRLPRPRPRPWPEPRP | 0.0713
RRIRCRPPRLPRPRPRPCIWPRP | -0.0143
RRIRMRPPRLPRPRPRPNICPRP | 0.021
RRIRCRPPRLPRPRPRPCAVPRP | -0.29
RRIRVRPPRLPRPRPRPKSGPRP | 0.148
RRIRNRPPRLPRPRPRPVCTPRP | -0.157
RRIRMRPPRLPRPRPRPMWIPRP | -0.217
RRIRARPPRLPRPRPRPKYGPRP | -0.0411
RRIRNRPPRLPRPRPRPHLMPRP | -0.584
RRIRVRPPRLPRPRPRPVCQPRP | 0.0508
RRIRRRPPRLPRPRPRPEFQPRP | -0.0288
RRIRRRPPRLPRPRPRPTIMPRP | 0.0494
RRIRDRPPRLPRPRPRPHNRPRP | -0.00159
RRIRVRPPRLPRPRPRPCAWPRP | 0.27
RRIRFRPPRLPRPRPRPKVLPRP | -0.128
RRIRSRPPRLPRPRPRPTKRPRP | 0.294
RRIRMRPPRLPRPRPRPSCTPRP | -0.0592
RRIRCRPPRLPRPRPRPIQWPRP | -0.263
RRIRMRPPRLPRPRPRPNLMPRP | -0.126
RRIRLRPPRLPRPRPRPVWDPRP | -0.0661
RRIRLRPPRLPRPRPRPEMGPRP | 0.144

Sequence | shrunken log2 fold change
RRIRPRPPRLPRPRPRPQNSPRP | -0.469
RRIRFRPPRLPRPRPRPAMLPRP | 0.0665
RRIRFRPPRLPRPRPRPNLEPRP | -0.257
RRIRRRPPRLPRPRPRPTDNPRP | 0.277
RRIRRRPPRLPRPRPRPEYDPRP | 0.109
RRIRCRPPRLPRPRPRPMSRPRP | 0.0291
RRIRLRPPRLPRPRPRPMRRPRP | 0.412
RRIRWRPPRLPRPRPRPGLEPRP | 1.46
RRIRCRPPRLPRPRPRPPFYPRP | -0.0226
RRIRYRPPRLPRPRPRPCIWPRP | -0.176
RRIRTRPPRLPRPRPRPCFHPRP | -0.638
RRIRSRPPRLPRPRPRPLACPRP | 0.268
RRIRFRPPRLPRPRPRPRHVPRP | -0.0276
RRIRMRPPRLPRPRPRPWSYPRP | 0.206
RRIRCRPPRLPRPRPRPFCNPRP | -0.428
RRIRHRPPRLPRPRPRPMFWPRP | 0.0114
RRIRIRPPRLPRPRPRPWEGPRP | -0.152
RRIRERPPRLPRPRPRPYFNPRP | -0.583
RRIRHRPPRLPRPRPRPICRPRP | 0.0125
RRIRVRPPRLPRPRPRPRPMPRP | 0.445
RRIRTRPPRLPRPRPRPFWLPRP | -0.0299
RRIRPRPPRLPRPRPRPEMWPRP | 0.579
RRIRIRPPRLPRPRPRPDCSPRP | 0.0951
RRIRKRPPRLPRPRPRPIRAPRP | 0.14
RRIRIRPPRLPRPRPRPRLTPRP | -0.0559
